The experiment has as its target C1QBP Recombinant Human Protein (gC1q-R) (human) (UniProt Q07021). Briefly: ELISA; solid-phase microplate competition: gC1q-R coated on wells; polyclonal antibodies against gC1q-R amino acids 76-104 or 221-249 added at 4 µg/mL 1 h before idInlB at 0.4 µg/mL; idInlB without antibodies as positive control; bound idInlB detected with anti-His polyclonal antibody. Background: An ELISA detects its analyte on a solid surface through an enzyme-linked reagent.
UniProt Q07021, sequence (Q07021 74-282): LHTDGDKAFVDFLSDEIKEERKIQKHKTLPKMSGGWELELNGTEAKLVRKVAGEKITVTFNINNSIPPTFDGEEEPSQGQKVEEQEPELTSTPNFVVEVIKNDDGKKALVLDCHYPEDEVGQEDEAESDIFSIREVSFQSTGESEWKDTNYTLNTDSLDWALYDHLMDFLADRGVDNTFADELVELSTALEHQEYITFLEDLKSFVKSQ

For the substance “InlB internalin domain isoform idInlB9 (lineage I, from L. monocytogenes strain VIMHA015) (from UniProt P0DQD2 36-321) (domain or fragment)”, the fold decrease of binding with the antibody against gC1q-R amino acids 76-104, against idInlB9 without antibody was 1.6 fold and the fold decrease of binding with the antibody against gC1q-R amino acids 221-249, against idInlB9 without antibody is 1.25 fold.

Source of the values: article PMC6747193.
